From PMC11976700, “Engineering of Conserved Sequence Motif 1 Residues in Halohydrin Dehalogenase HheC Simultaneously Enhances Activity, Stability, and Enantioselectivity” (ACS Catalysis, 2025) come the findings set out here.

Usually Km stands for the substrate concentration at which the rate is half of its maximum. One may read the kcat as the number of substrate molecules converted per active site and unit of time at saturation.

Data set [1] concerns T1, OC(CCl)CCl.
T1 construct: E. coli BL21(DE3); homotetramer
The data set is described as follows: dehalogenation, halide release assay, Michaelis-Menten fit. The settings on record: 25 mM Tris-SO4 pH 7.0, 30 °C. The format is biochemical, Agrobacterium tumefaciens. An excerpt:
(§1) dehalogenation, halide release assay, Michaelis-Menten fit on HheC

Data set [2] relates to ClCC1CO1. The data set is described as follows: purified protein. The following applies: 2 mM MOPS-SO4 pH 7.0, 30 °C.
Substrate in data set [3]: OC(CCl)CCl
The data set is described as follows: dehalogenation, halide release assay, Michaelis-Menten fit. Format: biochemical, Agrobacterium tumefaciens. The following applies: 25 mM Tris-SO4 pH 7.0, 30 °C.
From the text: as §1

Substrate in data set [4]: ClCC1CO1
Kind of data set: purified protein. The following applies: 2 mM MOPS-SO4 pH 7.0, 30 °C, fixed nonsaturating azide (100 mM in table footnote, 60 mM in methods).

Substrate in data set [5]: C1CCC2OC2C1
Format: biochemical, Ilumatobacter coccineus. The following applies: 2 mM MOPS-SO4 pH 7.0, 22 °C, fixed azide (100 mM in table footnote, 60 mM in methods).

Substrate in data set [6]: C1CCC2OC2C1
Format: biochemical, Ilumatobacter coccineus. The following applies: 2 mM MOPS-SO4 pH 7.0, 22 °C, fixed 100 mM azide.

Substrate in data set [7]: C1CCC2OC2C1
The format is biochemical, Ilumatobacter coccineus. The following applies: 2 mM MOPS-SO4 pH 7.0, 22 °C, fixed azide (100 mM in table footnote, 60 mM in methods). The source holds these as a separate data set.

Substrate in data set [8]: C1CCC2OC2C1
The format is biochemical, Ilumatobacter coccineus. The settings on record: 2 mM MOPS-SO4 pH 7.0, 22 °C, fixed azide (100 mM in table footnote, 60 mM in methods). This is another data set of the same source.

The mark [9] stands for this setting: fixed nonsaturating azide (100 mM in table footnote, 60 mM in methods).

Changes are numbered by the printed parent chain. Names may count otherwise. Read-outs that look alike come from different tables or passages of the source.

Consider HheC (Agrobacterium tumefaciens; T7S), for which, in data set [1], the Km turned out to be 810 ± 230 µM and the kcat was found to be 1.37 ± 0.07 s⁻¹. In data set [2] (setting [9]), this molecule had a K0.5 of 40.3 ± 6.88 mM.

For the molecule HheC (Agrobacterium tumefaciens; F12Y), in data set [1], the Km stood at 980 ± 190 µM and the catalytic constant (kcat) is 6.30 ± 0.26 s⁻¹. For the same molecule, the K0.5 in data set [2] (setting [9]) is recorded as 14.2 ± 0.67 mM.

For the molecule HheC (Agrobacterium tumefaciens; G14A), in data set [1], the Km was determined as 920 ± 370 µM and the catalytic constant (kcat) turned out to be 0.05 ± 0.00 s⁻¹. Moreover, in data set [2] (fixed 100 mM azide), the K0.5 was 49.5 ± 1.52 mM.

B1: HheC (Agrobacterium tumefaciens) (protein)
chain: MSTAIVTNVKHFGGMGSALRLSEAGHTVACHDESFKQKDELEAFAETYPQLKPMSEQEPAELIEAVTSAYGQVDVLVSNDIFAPEFQPIDKYAVEDYRGAVEALQIRPFALVNAVASQMKKRKSGHIIFITSATPFGPWKELSTYTSARAGACTLANALSKELGEYNIPVFAIGPNYLHSEDSPYFYPTEPWKTNPEHVAHVKKVTALQRLGTQKELGELVAFLASGSCDYLTGQVFWLAGGFPMIERWPGMPE
notes: E. coli BL21(DE3); homotetramer
B1: in data set [3], the Km came to 450 ± 140 µM and the catalytic constant (kcat) is 1.84 ± 0.11 s⁻¹. The K0.5 in data set [4] is given as 18.8 ± 1.24 mM.

B2: HheG (Ilumatobacter coccineus YM16-304; T13S) (protein)
chain: MSNAENRPVALISMATGYVGPALARTMADRGFDLVLHGTAGDGTMVGVEESFDSQIADLAKRGADVLTISDVDLTTRTGNQSMIERVLERFGRLDSACLVTGLIVTGKFLDMTDDQWAKVKATNLDMVFHGLQAVLPPMVAAGAGQCVVFTSATGGRPDPMVSIYGGTRAGANGIVRAVGLEHARHGVQVNAIGTNYMDFPGFLKASRADGDPERRAMIEAQVPLRRLGTMDELSSVTAGLLDGSNRFQTGQFFDFSGGWGA
notes: as for B1
For B2, the K0.5 in data set [5] is 44.8 ± 1.29 mM.

B3: HheG (Ilumatobacter coccineus YM16-304; G20A) (protein)
chain: B2 chain with S13T, G20A
notes: as for B1
Take B3: in data set [6], the K0.5 stood at 42.2 ± 3.64 mM.

B4: HheG (Ilumatobacter coccineus YM16-304) (protein)
chain: B2 chain with S13T
notes: as for B1
As for B4, the K0.5 in data set [7] was found to be 39.4 ± 2.69 mM.

B5: HheG (Ilumatobacter coccineus YM16-304; Y18F) (protein)
chain: B2 chain with S13T, Y18F
notes: as for B1
Consider B5, for which, in data set [8], the K0.5 came to 66.4 ± 1.42 mM.
